Assay: soluble on expression in E. coli; label from the status in PepcDB or PDB records
For “MVLTDEQRQAIAKKREEAIRRAAAYREREMQAAANATASTSSAAPPAPPKPVIPVMFSQNRQNFQPMKPTMNNSTKQSTINNYIKQVQKPEPTSLIKPTIGVKLKLDIGDRIKIEFYPFHSAVIDLIKQVPSRNYDPAKRSWTVASSDHITISNILKNATAVKVELEPLPQNIIGLTNFKPKAAPSDLNTVMDPSLIERLFPYQKEGVIFALERDGRILLADEMGLGKSVQALTIARYYKADWPLLIVCPASVKGAWKKQLNTFFPIIHRIFIVDKSSDPLPDVCTSNTVAIMSYEQMVLKHDILKKEKYRTIIFDESHMLKDGKARRTKVATDLSKVALHVILLSGTPALSRPSELFTQIRLIDHKLFTNFHEFAIRYCDGKQGRFCFEAKGCTNSEELAAIMFKRLMIRRLKADVLKDLPEKRREVVYVSGPTIDARMDDLQKARADYEKVNSMERKHESLLEFYSLTGIVKAAAVCEHILENYFYPDAPPRKVLIFAHHQIVLDTIQVEVNKRKLGSIRIDGKTPSHRRTALCDSFQTDDNIRVAVLSITAAGVGITLTAASVVVFAEIHFNPGYLVQAEDRAHRVGQKDSVFVQYLIAKKTADDVMWNMVQQKLDVLGQVSLSSDTFRTADKMHLRFNDAAQPGIAEYLKKTPDTTIDEWEDPVEEKEDDDLEIICDSPAPKRIKN”, the “soluble on expression in E. coli” value was “not soluble”.
For “MIEIKHLKTLQALRNSGSLAAAAAVLHQTQSALSHQFSDLEQRLGFRLFVRKSQPLRFTPQGEVLLQLANQVLPQISRALQACNEPQQTRLRIAIECHSCIQWLTPALENFRASWPQVEMDFTSGVTFDPQPALQQGELDLVMTSDILPRSGLHYSPMFDFEVRLVLAPDHPLASKTQITPEDLASETLLIYPVQRSRLDVWRHFLQPAGISPLLKSVDNTLLLIQMVAARMGIAALPHWVVESVERQGLVVTKTLGDGLWSRLYAAVRDGDQRQAVTEAFIRSTRDHACDHLPFVRSAERPIFDAPTAKPGSQPRL”, the “soluble on expression in E. coli” value was “not soluble”.
In the case of “ALSGECADEIFGGYPWFMRKEMIYANTFPWSRFVNERISLLSDDLKSINLQEYVDARYKENLNNVPVSDEDSPYAKRMRELFYLNIKWFMITLLTRKDRMSMANSLEVRVPFADYRLVEYAFNIPPEIKFLNGREKGILRKAFEGVLPQDVIERKKSPYPKTFDPRYTALVQKWLKKVVEDKTSPILDIIDLKTVNELIETGGSSYKTPWFGQLMKGPQLIAYLLQVNFWLKEY”, the “soluble on expression in E. coli” value is reported as “not soluble”.
For “MGSDKIHHHHHHMKNALIQSGPDTTGRRPSRKVLIYGLNYAPELTGIGKYSAEMAESLADVGYEVRVICAPPYYPEWRIGAGHSAWRYRTEQRAAVRIQRAPVWVPSRPSGLKRLLHLASFAVSSLPTVFAQLFWRPDIVIAVAPSLMNIPAALMFGKMARARTWLHIQDYEVDAAFELGMLKGKRLRQFALGVESWLMRRFDVVSTISARMIEHGRNKGVDSPRLFALPNWVDVNVIFPLDRPSLYRTALNIPDEAIVVLYSGNMGAKQGIEVLAQAAASLAHRSDIHFVLCGDGPYKVNLVEQCGHLANCTFLSLQPFDKLNDLLNVADIHVLPQRADAADLVMPSKLTGMLASGRSIIAMARAGTELFDVVSPRGVTVPPEDVQALVAAIENLADDVDQRTRLGAAARAYAETELSRRAVIERLDGRFQMLCDRVRGRSVFT”, the “soluble on expression in E. coli” value was “not soluble”.
With “METPKGTIIFTTVGRTHYGFDVFSLNIATSVERRLTDGVSVNFNAQFVNDKSDDVVFVSERNGSARIYKTRSGISKPEQIPGAPESYFHDRPIITQNNRLYFISAHEQPDRYFKNWSALYTVELNSAKREVTRVTPPDTADFSPAVSQSGDFLAVASYGTRSWGGEFHEINTDITVFKASKPETRVVICERGGWPTWSGDSTVFFHHQADDGWWSIFRVDIPENFTEYTDFPITPIRVTPSGLHCFTPAAFRDGKRIALATRRRGVNHRHIEIYDLENTTFQPVTESLNPSFHHYNPFVSPDSEFLGYHRFRGESTQGESIVPNIESIVSPIKTLRLLRINGSFPSSSPNGDLIALNSDFDINGGIKVSKSDGSKRWTLIKDRTAFYNSWSPTERHVIYTSLGPIFSPARIAVQIARIKFDPSDLTADKEDLPCDVKILTLENTGNNAFPSCSPDGKSIVFRSGRSGHKNLYIVDAVNGESNGGGIRRLTDGPWIDTMPCWSPKGDLIGFSSNRHNPENTAVFGAYVVRPDGTGLRRIQISGPEGSEEAARERVNHVSFNKDGDWLVFAANLSGVTAEPVTMPNQFQPYGDLYVVKLDGTGLRRLTWNGYEDGTPTWHTADELDLSQLNLNGQDGDKLEGQFEEPLWISCDI” the “soluble on expression in E. coli” value was “soluble”.
In the case of “TSADGLKLVANYLEAPSPSNTTIILAHGYRGKSGKVEMAGLARMYNQKFGYNVLMPDARAHGESEGKNIGFGWPERKDYVQWTNQVLDKNGDDTEIVLHGVSMGSSTVLMTSAEKLPKQVKSIIADCGYTSMDAELAYQLKAMFHLPKFPIIPMASLINKVKEGFFFSEASAINAVAETDLPIFYIHGDSDAFVPTSMVEELYDATKSYKEKWVVKGAEHGQAFTVEPETYEEKVRQFLTKTM”, the “soluble on expression in E. coli” value is reported as “not soluble”.
With “MGSDKIHHHHHHMVSCGGDGTLNEVVNGIVNTDLAIAVLPMGTGSDFGKTIGIRNISDFLKAIKSGRTREVDLVAAQFANQSRRYFINILEIGFGAEVMNYVNSHKYLGRGSFKFGAFYMLSKMHPFNLRLIMDGKEYEFPTIEAIFANGRYFGGGMLASPYSEIDDGLLDVHVLKPFSRIRSAMNFRTIYDGSYLNRRICA” the “soluble on expression in E. coli” value was “not soluble”.
With “MGSDKIHHHHHHMQIVACYSNKGGVGKTATAVNLAYAFATSGRRTLLCDLDPQGASGFYFRVKPSKKLTEARFFEDVEHFTKSIRGSDYDNLDILPANMSFRDFDVFLSKMKDARSRLKKALKAVKGDYDIVLLDCPPNISILSENIFRAADAVVTPVIPTTLSQRTFEQLLEFFREHDLPMEKIHAFFSMIQGTKTLHGEMIVELTHNYPKRIMAAKIPFASEIERMGVVRAPVLATAPDSPAGKAYQALFDELLERIVP” the “soluble on expression in E. coli” value was “not soluble”.
In the case of “MIDVHCHLVDNKFKEDLDDVIGHAHATGIQKMINFPEFESQFEKSIGISKKWPGSVYTGIGIHPIQKRGKSAKMKHISKMEQFFVEHERDIICVGECGLDHTISQFKLTTEDFEEQETVFKWQIDLAKHFEKPLNVHSRSAARRTIEILLECHVAPDQVVLHAFDGTPGDLKLGLEAGYLFSIPPSFGKSEETTQLIESIPLSQLLLETDSPALGPEKGCKNVPANLRISAEIVAKIKKLEIDDIISATSTNANRIFKF”, the “soluble on expression in E. coli” value is reported as “soluble”.
With “MGSDKIHHHHHHMRETIREIQKVAYWLAIKGLSEANAGNISVRLDERPEGYEVKSVNEYGFDYDGPEMYLLITATGSRMREVYEDDSKICLLHVLPGKHYEILHGNGKPTSEFPTHLMIHAKFKEMNPEKKAIVHTHPLNLLTLMNLEEFQELLPKMMKIHPEVLIFFPQGISVVEFEKPGSVELGLKTVEKSEGKDAVLWDKHGVVAFGKDVAEAYDRVEILEKAAEILLRVLSLGRNPTGVPEGWL” the “soluble on expression in E. coli” value was “not soluble”.
With “MGSDKIHHHHHHMFIETLNLSHFRNFSEVALSPSPKINIITGDNGSGKTSLLEAIYLLGFGRSFRPGGFRQLIKEGNSGFTVFCRSQDYAIGVRRSTDGEQSLRLNGANVQRMSDVARLVPVQLLTPESVDILLEGPGQRRQFIDWGVFHVEHSFYSDWVAYTQLLKQRNSLLKQRSLPVREDRYWKEQLAYYGERISKSREKYLEELNDYIQELAKSFLSDVTMEVRLKSGWDTSQSLFDALESHTEKDKKYGFTSVGAHKADIKVIADGVEVKHRLSRGQLKTAITALKLAQGKHYQKIKRQPCIYLVDDLTSELDSKNQALLCRELENLDAQVFITAITGKQLSDKFQKSPRMFHVEHGVINE” the “soluble on expression in E. coli” value was “not soluble”.
For “MLQEIPTTTPSLREARPCVLETERLTLRKPVLADVQAIASLANDRRVVEMTRRMPFPYTRDDAARFVTALPKSSDSVFLIEAEDLEPIGLVGVDWSDRDAPELGYWLGVQHWGNGYATEAARAVIDFTFEVHGAKQMISGARVINPASRNVLEKCGFQWTGVELHRFESIGSSTPVDCFRLTRGVWSSLKKWGTTKRRC”, the “soluble on expression in E. coli” value was “not soluble”.
With “RRTTNDGFHLLKAGGSCFALISGTANQVKCYRFRVKKNHRHRYENCTTTWFTVADNGAERQGQAQILITFGSPSQRQDFLKHVPLPPGMNISGFTASLDF” the “soluble on expression in E. coli” value was “soluble”.
With “MTLILKRVQLLKDKPRREAIDRFLRQHQLSLEADCEMAIIAEYQQRLVGCGAIAGNVLKCIAIDPSLQGEGLSLKLLTELLTLAYELGRSELFLFTKPCNAALFSGAGFWPIAQAGDRAVLMENSRERLTRYCRQLAMYRQPGRKIGAIVMNANPFTLGHRWLVEQAASQCDWLHLFVVKEDASCFSYHDRFKLIEQGITGIDKVTLHPGSAYLISRATFPGYFLKEQGVVDDCHSQIDLQLFRERLAPALQITHRFVGTEPLCPLTRNYNQRMKSLLEAPGDAPPIEVVELARIEKNGGPVSASRVRELYRQRNWQAVAALVPPGTLSFLMQLAESEHQTA” the “soluble on expression in E. coli” value was “not soluble”.
With “MKYFLPLDVSLASAYLKATMSFKDPPTLQQLARRSLLKDEALTISALLNLPVQLFPPLFKDAFTSRQRKILSLMVAAWPFPVLPVGALGGIDHLETLKAVLDGLDLLMSQKDRPRWNLQVLDLGNAHQDFWDGWAGLLHEVCSQDVFGKNQPVGNHPIPGGKQTITIKMNLSLKYCRHSKYLNYLHWWAEQRKDGIQVICEKLEFTGPHSSIQELAIKSIHWDIYNLALIASCLGQMKNLQKLILMNIRRPPDLADLQEAHIVTEIFSEFSKLHKVHYLHVNNVYFLKERLDQMLRCFERPLETLAITHCRLSELDMRYLSQCPSIHQLKYLDMSYTTFKPSSHRFLGSLLERLTATLQTLKLECFHLTDFQIRDLLPGLSQCSQLTEVDIAMNEFSVVSLKKLLKHTANLTQLTLEKYPAPVEVYDDGHSVISDRFVQLCSELMNTLKGVRQAKQVYFVSMPCLRNYEFLIYNLKGLDSSEQLRRRGLSWALINGEQVSRDSLQL” the “soluble on expression in E. coli” value was “not soluble”.
With “MWFIMMDTKDPPTLLDLATQNLLSNEHAAIQALEEIPRELFVPLFTAAFTGRHKNILTAIVKAWPFACLHIGALSVQEPERELLKALIESLQFLLALNSATRSPKLRILDLRQDAGCKTVCPEISTNSTICFRSCAHSEHSIFKIEGQESLSSSKSEAQPSRLPMELIVDISLDGTLRERNFFALLQNKVEQSLGSLHLCCRDLQINNLCECRHALSHLDLKCVDHLAVDESPLTEVTKLLSHTIQLDSLSLSKIACRSLNGRTFRNFITQLSRMNHLKELSLSSFCLTDHLENVLRVLSADLEFLYLPFCGLSYSDFKFLSECSQVSHLKLLNVNNNPIYWEDCEPFYYLLQNVSSTLQHLKICYCFLTDSTISVLIPALTRCSQLRVLHFYSNQITMGMLMRILELLTPLKELKHVIYPIPVHCYGRWHFQGSLDRQKVEDVQRQLNLMLQEAERSDMNWITYSD” the “soluble on expression in E. coli” value was “not soluble”.
For “MVPSEGTWVYVVNLRRVYWGRRTRRAIRAVRMVREFVRRHTKADEVVIDNELNNYIWSRSREKPPARVKIIVSIREEEPEEGGERIRKAVVRLAGRKLRPGRYKG”, the “soluble on expression in E. coli” value was “soluble”.
In the case of “MQRNSENSKNGRRVSSSSYMSAAAAAGAAAALRLSVDARAGKEYTTQTHQRDKT”, the “soluble on expression in E. coli” value is reported as “not soluble”.
With “MSLFVSLSEKKKFLTWLVNTAPFGRREVLWILNYLLTHDAILNNVHFVENVEKTDRGIRVVADGLGKEPLLLFIQAQEFTDPEQIFHEIRMNWRKALYLECVFPEAWQTSQYLSVLEDNPFAPWNEQVDQEVARAIDQYFKQEEQTQRMALLKAQIDDALETGNKEAFLELSDELNRLKQQEGHHHHHH” the “soluble on expression in E. coli” value was “soluble”.
In the case of “MSLDKPVLLLGEICVDFTLSTPMSSAKMRLGGVVHAARGLWALNVPYSVAAICPDYLVSEAEAYLYAHGCTNFIQVGTVLGAPNVFLIGDAREVGHQGYENILREAKKVLTFDLDEKLRGFKNIVVYPGTFDFEGIVKNLDSDAKITVDIAYDVNDADELSRVYGASHALAISTSSELFSSLALENLGPLLKACKTRSAKHLLLKENRGGSRLFDLESGESWEIPATLARTVNSVGVGDVYTAVFAALIDHGALTAALRGMQAATRYAQTTFPDDFKRDVQRDEGHHHHHH”, the “soluble on expression in E. coli” value is reported as “not soluble”.
